{"source": "patent US20040091465A1", "about": "“Therapeutic antiangiogenic compositions and methods” (priority 2002, published 2004)", "key": {"3T3 fibroblasts": {"tested_on": "3T3 fibroblasts", "test": "Non-endothelial cell proliferation assay, 3T3", "type": "cell-based", "details": "72 hours", "experimental": "(§1) Bovine aortic smooth muscle (SMC), bovine retinal pigment epithelial (RPE), mink lung epithelial (MLE), Lewis lung carcinoma (LLC), and EOMA cells and 3T3 fibroblasts were maintained in a 10% CO2 and 37° C. incubator. For the proliferation assays, cells were washed with PBS and were dispersed in a 0.05% solution of trypsin. Optimal conditions for the cell proliferation assays were established for each different cell type. Fetal calf serum (FCS) was used for the RPE, MLE, and LLC cells and BCS was used for the other cell types. A cell suspension (20,000 cells/ml for SMC, RPE, MLE; 15,000 cells/ml for 3T3; 10,000 cells/ml for LLC, EOMA) was made with DMEM+10% bovine serum+1% GPS, plated onto 24 well culture plates (0.5 ml/well), and incubated (37° C., 10% C02) for 24 hours. The media was replaced with 0.5 ml of DMEM+5% bovine serum+1% GPS and the test sample applied. After 72 hours, cells were dispersed in trypsin, resuspended in Hematall (Fisher Scientific, Pittsburgh, Pa.), and counted by Coulter counter."}, "[1]": {"tested_on": "cells of non-endothelial origin", "test": "Non-endothelial cell proliferation assays, stated for all lines together", "type": "cell-based", "details": "doses 1 log unit higher than those used to inhibit capillary endothelial cell proliferation", "experimental": "as §1"}, "[2]": {"tested_on": "Mink lung epithelial cells", "test": "Non-endothelial cell proliferation assay, MLE", "type": "cell-based", "details": "72 hours", "experimental": "as §1"}, "[3]": {"tested_on": "bovine capillary endothelial cells", "test": "Bovine capillary endothelial (BCE) cell proliferation assay, 72 hours, bFGF", "type": "cell-based", "experimental": "To further characterize the 20 kDa inhibitor, we tested it on several cell lines of endothelial and non-endothelial origin. For the BCE assay, bovine capillary endothelial cells were obtained and grown as previously described (Folkman et al., 1979). For the proliferation assay, cells were washed with PBS and dispersed in a 0.05% solution of trypsin. A cell suspension (25,000 cells/ml) was made with DMEM+10% BCS+1% GPS, plated onto gelatinized 24-well culture plates ([…]), and incubated (37° C., 10% CO2) for 24 hours. The media was replaced with 0.25 ml of DMEM+5% BCS+1% GPS and the test sample applied. After 20 minutes of incubation, media and bFGF were added to obtain a final volume of 0.5 ml of DMEM+5% BCS+1% GPS+1 ng/ml bFGF. After 72 hours, cells were dispersed in trypsin, resuspended in Hematall (Fisher Scientific, Pittsburgh, Pa.), and counted by Coulter counter."}, "[4]": {"tested_on": "Bovine retinal pigment epithelial cells", "test": "Non-endothelial cell proliferation assay, RPE", "type": "cell-based", "details": "72 hours", "experimental": "as §1"}, "[5]": {"tested_on": "EOMA hemangioendothelioma cells", "test": "Non-endothelial cell proliferation assay, EOMA", "type": "cell-based, murine", "details": "72 hours", "experimental": "as §1"}, "[6]": {"tested_on": "Bovine aortic smooth muscle cells", "test": "Non-endothelial cell proliferation assay, SMC", "type": "cell-based", "details": "72 hours", "experimental": "as §1"}, "[7]": {"tested_on": "Lewis Lung carcinoma cells", "test": "Non-endothelial cell proliferation assay, LLC", "type": "cell-based", "details": "72 hours", "experimental": "as §1"}, "[8]": {"tested_on": "Lewis lung carcinoma primary tumors", "test": "Systemic therapy of Lewis lung carcinoma primary tumors", "type": "in vivo, mice", "details": "20 mg/kg/day, FIG. 11"}}, "data": [{"molecule": "endostatin: 20 kDa inhibitor of endothelial cell proliferation purified from EOMA conditioned media; C-terminal fragment of collagen XVIII NC1 domain (protein, listed as Homo sapiens) HSHRDFQPVLHLVALNSPLSGGMRGIRGADFQCFQQARAVGLAGTFRAFLSSRLQDLYSIVRRADRAAVPIVNLKDELLFPSWEALFSGSEGPLKPGARIFSFDGKDVLRHPTWPQKSVWHGSDPNGRRLTESYCETWRTEAPSATGQASSLLGGRLLGQSAASCHHAYIVLCIENSFMTASK", "values": [{"measurement": "Effect on 3T3 fibroblast proliferation", "setting": "3T3 fibroblasts", "value": "no effect"}, {"measurement": "Effect on 3T3 fibroblast proliferation", "setting": "3T3 fibroblasts; listed as ENDOSTATIN", "value": "NON-INHIBITED"}, {"measurement": "Inhibition of proliferation of cells of non-endothelial origin", "setting": "[1]", "value": "No significant inhibition"}, {"measurement": "Effect on mink lung epithelial cell proliferation", "setting": "[2]", "value": "NON-INHIBITED"}, {"measurement": "Dose at which inhibition of endothelial cell proliferation was first observed", "setting": "[3]; 72 hour BCE assay", "value": 100, "unit": "ng/mL"}, {"measurement": "Dose giving maximal inhibition of endothelial cell proliferation", "setting": "[3]; 72 hour BCE assay", "value": "≥ 600", "unit": "ng/mL"}, {"measurement": "Effect on bovine capillary endothelial cell proliferation", "setting": "[3]; 72 hour proliferation assay, 1 ng/ml bFGF", "value": "INHIBITED"}, {"measurement": "Effect on bovine retinal pigment epithelial cell proliferation", "setting": "[4]", "value": "NON-INHIBITED"}, {"measurement": "Effect on EOMA hemangioendothelioma cell proliferation", "setting": "[5]", "value": "no effect"}, {"measurement": "Effect on EOMA hemangioendothelioma cell proliferation", "setting": "[5]; listed as ENDOSTATIN", "value": "NON-INHIBITED"}, {"measurement": "Effect on bovine aortic smooth muscle cell proliferation", "setting": "[6]", "value": "no effect"}, {"measurement": "Effect on bovine aortic smooth muscle cell proliferation", "setting": "[6]; listed as ENDOSTATIN", "value": "NON-INHIBITED"}, {"measurement": "Effect on Lewis lung carcinoma cell proliferation", "setting": "[7]", "value": "no effect"}, {"measurement": "Effect on Lewis lung carcinoma cell proliferation", "setting": "[7]; listed as ENDOSTATIN", "value": "NON-INHIBITED"}]}, {"molecule": "endostatin derived from human: recombinant endostatin from the human sequence, produced in E. coli (protein, listed as Homo sapiens) HSHRDFQPVLHLVALNSPLSGGMRGIRGADFQCFQQARAVGLAGTFRAFLSSRLQDLYSIVRRADRAAVPIVNLKDELLFPSWEALFSGSEGPLKPGARIFSFDGKDVLRHPTWPQKSVWHGSDPNGRRLTESYCETWRTEAPSATGQASSLLGGRLLGQSAASCHHAYIVLCIENSFMTASK", "values": [{"measurement": "Inhibition of Lewis lung carcinoma tumor growth by human endostatin", "setting": "[8]", "value": "effectiveness"}]}]}
